Source: US20220411483A1 (Chugai, published 2022)
Where a chain is given by its changes, count along the chain named. Names may count otherwise. Where two headings read alike, the source gives them in different places. Each block holds one binder with its values, some of them ahead of it.

Legend:
[1] = molecular target: T1, FcγRIIb extracellular domain, His tag (human, UniProt P31994 43-217); experiment: SPR, bound amount per captured antibody
T1 construct: extracellular domain; also called FcgRIIb
T1 sequence (looked up): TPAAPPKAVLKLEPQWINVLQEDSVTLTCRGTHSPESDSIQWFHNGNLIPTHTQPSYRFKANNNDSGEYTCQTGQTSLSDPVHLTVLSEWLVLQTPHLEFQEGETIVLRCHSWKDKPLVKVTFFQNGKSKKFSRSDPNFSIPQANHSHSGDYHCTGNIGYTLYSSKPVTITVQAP

[2] = molecular target: T2, FcγRIIa R type extracellular domain, His tag (human, UniProt P12318 34-217); experiment: SPR, bound amount per captured antibody
T2 construct: extracellular domain; also called FcgRIIaR
T2 sequence (looked up): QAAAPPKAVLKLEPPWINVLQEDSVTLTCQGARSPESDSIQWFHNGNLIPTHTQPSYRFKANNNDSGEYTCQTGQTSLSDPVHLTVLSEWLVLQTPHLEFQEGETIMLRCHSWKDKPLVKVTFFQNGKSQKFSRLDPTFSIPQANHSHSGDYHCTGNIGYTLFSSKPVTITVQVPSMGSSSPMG

[3] = molecular target: T1, FcγRIIb extracellular domain, His tag; experiment: SPR, bound amount per captured antibody; remark: listed apart in the source
[4] = molecular target: T2, FcγRIIa R type extracellular domain, …; experiment: SPR, bound amount per captured antibody; remark: listed apart in the source
[5] = molecular target: T3, FcgRIIaR (human, UniProt P12318 34-217); experiment: SPR, amount bound per captured antibody
T3 construct: extracellular domain; also called FcγRIIa R type; FcγRIIa (R type)
T3 sequence (looked up): T2 sequence (looked up)

[6] = molecular target: T4, FcgRIIb (human, UniProt P31994 43-217); experiment: SPR, amount bound per captured antibody
T4 construct: extracellular domain; also called FcγRIIb
T4 sequence (looked up): T1 sequence (looked up)

[7] = molecular target: T5, FcγRIIa R type extracellular domain with C-terminal His tag (human, UniProt P12318 34-217); experiment: SPR; amount bound divided by amount of IL6R-F652/IL6R-L bound, x100
T5 construct: extracellular domain; also called FcgRIIaR; not shown: His tag at the C terminus
T5 sequence (looked up): T2 sequence (looked up)

[8] = molecular target: T6, FcγRIIb extracellular domain with C-terminal His tag (human, UniProt P31994 43-217); experiment: as above
T6 construct: extracellular domain; also called FcgRIIb; not shown: His tag at the C terminus
T6 sequence (looked up): T1 sequence (looked up)

Relative FcgRIIb-binding Activity [1]: 65.5 % of IL6R-BF648/IL6R-L
Relative FcgRIIaR-binding Activity [2]: 55.7 % of IL6R-BF648/IL6R-L
B1: IL6R-2B044/IL6R-L (antibody, human IgG1, kappa)
heavy: QVQLQESGPGLVKPSETLSLTCAVSGHSISHDHAWSWVRQPPGEGLEWIGFISYSGITNYNPSLQGRVTISRDNSKNTLYLQMNSLRAEDTAVYYCARSLARTTAMDYWGEGTLVTVSSASTKGPSVFPLAPSSKSTSGGTAALGCLVKDYFPEPVTVSWNSGALTSGVHTFPAVLQSSGLYSLSSVVTVPSSSLGTQTYICNVNHKPSNTKVDKKVEPKSCDKTHTCPPCPAPELLGGDSVLLFPPKPKDTLMISRTPEVTCVVVDVSHEDPEVKFNWYVDGVEVHNAKTKPREEQYNSTYRVVSVLTVLHQDWLNGKEYKCKVSNKALPAPIEKTISKAKGQPREPQVYTLPPSRDELTKNQVSLTCLVKGFYPSDIAVEWESNGQPENNYKTTPPVLDSDGSFFLYSKLTVDKSRWQQGNVFSCSVMHEALHNHYTQESLSLSP
light: not shown

Relative FcgRIIb-binding Activity [1]: 89.1 % of IL6R-BF648/IL6R-L
Relative FcgRIIaR-binding Activity [2]: 66.9 % of IL6R-BF648/IL6R-L
B2: IL6R-2B132/IL6R-L (antibody, human IgG1, kappa)
heavy: B1 heavy with L243F, Y298H
light: not shown

Relative FcgRIIb-binding Activity [3]: 102 % of IL6R-F652/IL6R-L
Relative FcgRIIaR-binding Activity [4]: 92.5 % of IL6R-F652/IL6R-L
B3: IL6R-PD012/IL6R-L (antibody, human IgG1, kappa)
heavy: B1 heavy with L243F, M254Y, S326N, N436Y, E441K
light: not shown

Relative FcgRIIb-binding Activity [1]: 102 % of IL6R-BF648/IL6R-L
Relative FcgRIIaR-binding Activity [2]: 88.1 % of IL6R-BF648/IL6R-L
B4: IL6R-2B128/IL6R-L (antibody, human IgG1, kappa)
heavy: B1 heavy with L243F, Y298D
light: not shown

Relative FcgRIIaR-binding Activity [5]: 100 IL6R-BP267/IL6R-L=100
Relative FcgRIIb-binding Activity [6]: 100 IL6R-BP267/IL6R-L=100
B5: IL6R-BP267/IL6R-L (antibody, human IgG1, kappa)
heavy: B1 heavy with E235D, G239D, L243F, H270E, P273G
light: not shown
notes: IL6R-BF648 with E233D/G237D/H268E/P271G

Relative FcgRIIaR-binding Activity [5]: 16.3 IL6R-BP267/IL6R-L=100
Relative FcgRIIb-binding Activity [6]: 31.7 IL6R-BP267/IL6R-L=100
B6: IL6R-BP321/IL6R-L (antibody, human IgG1, kappa, name in EU numbering)
heavy: B1 heavy with E235D, G239D, L243F, D267N, H270E, P273G
light: not shown

Relative FcgRIIb-binding Activity [3]: 91.9 % of IL6R-F652/IL6R-L
Relative FcgRIIaR-binding Activity [4]: 90.8 % of IL6R-F652/IL6R-L
B7: IL6R-PD013/IL6R-L (antibody, human IgG1, kappa)
heavy: B1 heavy with L243F, M254Y, S326H, N436Y, E441K
light: not shown

Relative FcgRIIb-binding Activity [3]: 66 % of IL6R-F652/IL6R-L
Relative FcgRIIaR-binding Activity [4]: 65 % of IL6R-F652/IL6R-L
B8: IL6R-PD089/IL6R-L (antibody, human IgG1, kappa)
heavy: B1 heavy with G239Q, L243F, M254Y, N436Y, E441K
light: not shown

Relative FcgRIIb-binding Activity [1]: 55.5 % of IL6R-BF648/IL6R-L
Relative FcgRIIaR-binding Activity [2]: 45.1 % of IL6R-BF648/IL6R-L
B9: IL6R-2B145/IL6R-L (antibody, human IgG1, kappa)
heavy: B1 heavy with L243F, S300A
light: not shown

Relative FcgRIIb-binding Activity [1]: 103 % of IL6R-BF648/IL6R-L
Relative FcgRIIaR-binding Activity [2]: 90.8 % of IL6R-BF648/IL6R-L
B10: IL6R-2B169/IL6R-L (antibody, human IgG1, kappa)
heavy: B1 heavy with L243F, V325I
light: not shown

Relative FcgRIIaR-binding Activity [7]: 20.6
Relative FcgRIIb-binding Activity [8]: 10.4
B11: IL6R-PD072/IL6R-L (antibody, human IgG1, kappa)
heavy: B1 heavy with G238Q, L243F, M254Y, N436Y, E441K
light: not shown
notes: human IgG1

Relative FcgRIIaR-binding Activity [7]: 37.7
Relative FcgRIIb-binding Activity [8]: 7.9
B12: IL6R-PD044/IL6R-L (antibody, human IgG1, kappa)
heavy: B1 heavy with L237A, L243F, M254Y, N436Y, E441K
light: not shown
notes: human IgG1

Relative FcgRIIaR-binding Activity [7]: 7.9
Relative FcgRIIb-binding Activity [8]: 23.7
B13: IL6R-PD090/IL6R-L (antibody, human IgG1, kappa)
heavy: B1 heavy with G239R, L243F, M254Y, N436Y, E441K
light: not shown
notes: human IgG1

Relative FcgRIIb-binding Activity [1]: 79.4 % of IL6R-BF648/IL6R-L
Relative FcgRIIaR-binding Activity [2]: 77.5 % of IL6R-BF648/IL6R-L
B14: IL6R-2B154/IL6R-L (antibody, human IgG1, kappa)
heavy: B1 heavy with L243F, S300M
light: not shown

Relative FcgRIIaR-binding Activity [7]: 100
Relative FcgRIIb-binding Activity [8]: 100
B15: IL6R-F652/IL6R-L (antibody, human IgG1, kappa)
heavy: B1 heavy with L243F, M254Y, N436Y, E441K
light: not shown
notes: human IgG1

Relative FcgRIIaR-binding Activity [7]: 67.2
Relative FcgRIIb-binding Activity [8]: 37.2
B16: IL6R-PD026/IL6R-L (antibody, human IgG1, kappa)
heavy: B1 heavy with L236A, L243F, M254Y, N436Y, E441K
light: not shown
notes: human IgG1

Relative FcgRIIaR-binding Activity [5]: 4.3 IL6R-BP267/IL6R-L=100
Relative FcgRIIb-binding Activity [6]: 2.3 IL6R-BP267/IL6R-L=100
B17: IL6R-BP318/IL6R-L (antibody, human IgG1, kappa, name in EU numbering)
heavy: B1 heavy with E235D, G239D, L243F, D267K, H270E, P273G
light: not shown

Relative FcgRIIb-binding Activity [1]: 93.3 % of IL6R-BF648/IL6R-L
Relative FcgRIIaR-binding Activity [2]: 68.4 % of IL6R-BF648/IL6R-L
B18: IL6R-2B129/IL6R-L (antibody, human IgG1, kappa)
heavy: B1 heavy with L243F, Y298E
light: not shown
